The RNAGym collection of RNA variant scans (doi:10.7554/elife.80360)

B1: HDV Ribozyme (parent)
chain: GGCCGGCAUGGUCCCAGCCUCCUCGCUGGCGCCGGCUGGGCAACAUUCCGAGGGGACCGUCCCCUCGGUAAUGGCGAAUGGGACCCA

Variants of: B1
Experiment: self-cleavage, relative activity (ratio to wild type); higher = more cleavage; co-transcriptional

Row | Variant | self-cleavage
1 | GGCCGGCAUGGUUCCAGCCUCCUCGCUGGCGCCGGCUGGGCAACAUUCCGAGGGGACCGUCCCCUCGGUAAUGGCGAAUCGGACCCA [C13U G80C] | 0.0332
2 | GGCCGGCAUGGUUCCAGCCUCCUCGCUAGCGCCGGCUGGGCAACAUUCCGAGGGGACCGUCCCCUCGGUAAUGGCGAAUGGGACCCA [C13U G28A] | 0.128
3 | GGCCGGCAUGGUUCCAGCCUCCUCGCUGGCGCCGGCUGGGCAACAUUCCGAGGGGACCGUCCCCUCGGUAAUGGCGAAUGGCACCCA [C13U G82C] | 0.277
4 | GGCCGGCAUGGUUCCAGCCUCCUCGCUGGCGCCGGCUGGGCAACAUUCCGAGGGGACCGUCCCCUCGGUAAUGGCGAAUGGUACCCA [C13U G82U] | 0.359
5 | GGCCGGCAUGGUUCCAGCCUCCUCGCUGGCGCCGGCUGGGCAACAUUCCGAGGAGACCGUCCCCUCGGUAAUGGCGAAUGGGACCCA [C13U G54A] | 0.739
6 | GGCCGGCAUGGUUCCAGCCUCCUCGCUGGCGCCGGCUGGGCAACAUUCCGAGGGGACCGUCCCCUCGGUAAUGCCGAAUGGGACCCA [C13U G74C] | 0.0627
7 | GGCCGGCAUGGUUCCAGCCUCCUCGCUGGCGCCCGCUGGGCAACAUUCCGAGGGGACCGUCCCCUCGGUAAUGGCGAAUGGGACCCA [C13U G34C] | 0.0898
8 | GGCCGGCAUGGUUCCAGCCUCCUCGCUGGCGCCUGCUGGGCAACAUUCCGAGGGGACCGUCCCCUCGGUAAUGGCGAAUGGGACCCA [C13U G34U] | 0.0268
9 | GGCCGGCAUGGUUCCAGCCUCCUCGCUGGCGCCGGCUGGGCAACAUUCCGAGGGGACCGUCCGCUCGGUAAUGGCGAAUGGGACCCA [C13U C63G] | 0.233
10 | GGCCGGCAUGGUUCCAGCCUCCUCGCUGGCGCCGGCUGGGCAACAUUCCGAGGGGACCGUCCUCUCGGUAAUGGCGAAUGGGACCCA [C13U C63U] | 0.696
11 | GGCCGGCAUGGUUCCAGCCUCCUCGCUGGCGCCGGCUGGGCAACAUUCCGAGGGGACCGUCCCCUCGGUAAUGGCGAAUGGGACCAA [C13U C86A] | 0.96
12 | GGCCGGCAUGGUUCCAGCCUCCUCGCUGGCGCCGGCUGGGCAACAUUCCGAGGGGACCGUCCCCUCGGUAAUGGCGAAUGUGACCCA [C13U G81U] | 0.163
13 | GGCCGGCAUGGUUCCAGCCUCCUCGCUGGCGCCGGCUGGGGAACAUUCCGAGGGGACCGUCCCCUCGGUAAUGGCGAAUGGGACCCA [C13U C41G] | 0.739
14 | GGCCGGCAUGGUUCCAGCCUCCUCGCUGGCGCCGGCUGGGUAACAUUCCGAGGGGACCGUCCCCUCGGUAAUGGCGAAUGGGACCCA [C13U C41U] | 0.323
15 | GGCCGGCAUGGUUCCAGCCUCCUCGCUGGCGCCGGCUGGGAAACAUUCCGAGGGGACCGUCCCCUCGGUAAUGGCGAAUGGGACCCA [C13U C41A] | 0.522
16 | GGCCGGCAUGGUUCCAGCCUCCUCGCUGGCGCCGGCUGGGCAACAUUCCGAGGGGACCGUCCCAUCGGUAAUGGCGAAUGGGACCCA [C13U C64A] | 0.807

Row | Variant | self-cleavage
17 | GGCCGGCAUGGUUCCAGCCUCCUCGCUGGCGCCGGCUGGGCAACAUUCCGAGGGGACCGUCCCGUCGGUAAUGGCGAAUGGGACCCA [C13U C64G] | 0.567
18 | GGCCGGCAUGGUUCCAGCCUCCUCGCUGGCGCCGGCUGGGCAACAUUCCGAGGGGACCGUCCCCUCGGUAAUGGGGAAUGGGACCCA [C13U C75G] | 0.0723
19 | GGCCGGCAUGGUUCCAGCCUCCUCGCUGGCGCCGGCUGGGCAACAUUCCGAGGGAACCGUCCCCUCGGUAAUGGCGAAUGGGACCCA [C13U G55A] | 0.702
20 | GGCCGGCAUGGUUCCAGCCUCCUCGCUGGCGCCGGCUGGGCAACAUUCCGAGGGGACCGUCCCCUCGGUAAUGGCGAAUGGGAACCA [C13U C84A] | 0.911
21 | GGCCGGCAUGGUUCCAGCCUCCUCGCUGGCGCCGGCUGGGCAACAUUCCGAGGGGACCGUCCCCUCGGUAAUGGCGAAUGGGAGCCA [C13U C84G] | 0.969
22 | GGCCGGCAUGGUUCCAGCCUCCUCGCUGGCGCCGGCUGGGCAACAUUCCGAGGGGACAGUCCCCUCGGUAAUGGCGAAUGGGACCCA [C13U C58A] | 0.665
23 | GGCCGGCAUGGUUCCAGCCUCCUCGCUGGCGCCGGCUGGGCAACAUUCCGAGGGGACGGUCCCCUCGGUAAUGGCGAAUGGGACCCA [C13U C58G] | 0.554
24 | GGCCGGCAUGGUUCCAGCCUCCUCGCUGGCGCCGGCUGGGCAACAUUCCGAGGGGACCGUCCCCUGGGUAAUGGCGAAUGGGACCCA [C13U C66G] | 0.589
25 | GGCCGGCAUGGUUCCAGCCUCCUCGCUGGCGCCGGCUGGGCAACAUUCCGAGGGGACCGUCCCCUUGGUAAUGGCGAAUGGGACCCA [C13U C66U] | 0.698
26 | GGCCGGCAUGGUUCCAGCCUCCUCGCUGGCGCCGGCUGAGCAACAUUCCGAGGGGACCGUCCCCUCGGUAAUGGCGAAUGGGACCCA [C13U G39A] | 0.332
27 | GGCCGGCAUGGUUCCAGCCUCCUCGCUGGCGCCGGCUGCGCAACAUUCCGAGGGGACCGUCCCCUCGGUAAUGGCGAAUGGGACCCA [C13U G39C] | 0.0369
28 | GGCCGGCAUGGUUCCAGCCUCCUCGCUGGCGCCGGCUUGGCAACAUUCCGAGGGGACCGUCCCCUCGGUAAUGGCGAAUGGGACCCA [C13U G38U] | 0.149
29 | GGCCGGCAUGGUUCCAGCCUCCUCGCUGGCGCCGGCUAGGCAACAUUCCGAGGGGACCGUCCCCUCGGUAAUGGCGAAUGGGACCCA [C13U G38A] | 0.138
30 | GGCCGGCAUGGUUCCAGCCCCCUCGCUGGCGCCGGCUGGGCAACAUUCCGAGGGGACCGUCCCCUCGGUAAUGGCGAAUGGGACCCA [C13U U20C] | 0.0978
31 | GGCCGGCAUGGUUCCAGCCGCCUCGCUGGCGCCGGCUGGGCAACAUUCCGAGGGGACCGUCCCCUCGGUAAUGGCGAAUGGGACCCA [C13U U20G] | 0.135
32 | GGCCGGCAUGGUUCCAGCCUCCUCGCUGGCGCCGGCUGGGCAACAUUCCGACGGGACCGUCCCCUCGGUAAUGGCGAAUGGGACCCA [C13U G52C] | 0.639
